Where no end group is shown, it is not given here. The star is where a group is joined. Nif = α,α,α-trifluoro-m-toluidino-nicotinyl, O=C(c1cccnc1Nc1cccc(C(F)(F)F)c1)*
Biological target: T1, purified human P-selectin (Homo sapiens, UniProt P16109)
T1 construct: P-selectin is isolated from human platelet lysates; from tissue; host or cells: outdated human platelet packs (platelet lysates)
T1 sequence (P16109 42-830): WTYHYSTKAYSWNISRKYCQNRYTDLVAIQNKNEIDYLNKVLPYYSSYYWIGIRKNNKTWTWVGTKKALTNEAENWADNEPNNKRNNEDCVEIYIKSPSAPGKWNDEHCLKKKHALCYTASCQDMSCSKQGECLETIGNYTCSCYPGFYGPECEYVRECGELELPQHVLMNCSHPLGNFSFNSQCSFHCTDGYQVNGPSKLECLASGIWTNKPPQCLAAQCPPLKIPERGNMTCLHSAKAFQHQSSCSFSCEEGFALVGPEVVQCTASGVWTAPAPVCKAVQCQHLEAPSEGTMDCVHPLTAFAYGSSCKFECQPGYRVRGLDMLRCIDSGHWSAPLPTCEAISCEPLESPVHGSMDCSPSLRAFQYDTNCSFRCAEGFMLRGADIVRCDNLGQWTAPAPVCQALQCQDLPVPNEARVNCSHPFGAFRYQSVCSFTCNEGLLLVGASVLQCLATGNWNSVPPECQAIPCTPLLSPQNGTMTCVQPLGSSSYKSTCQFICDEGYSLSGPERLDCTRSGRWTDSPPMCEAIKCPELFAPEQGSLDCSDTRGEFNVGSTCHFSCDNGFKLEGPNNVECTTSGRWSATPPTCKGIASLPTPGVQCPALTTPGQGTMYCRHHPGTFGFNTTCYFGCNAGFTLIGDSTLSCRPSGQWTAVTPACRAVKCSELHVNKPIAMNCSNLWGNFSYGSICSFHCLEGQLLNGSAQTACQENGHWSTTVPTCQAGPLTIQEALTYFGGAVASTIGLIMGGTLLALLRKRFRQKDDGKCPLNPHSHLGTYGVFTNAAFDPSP
Assay: Neutrophil adhesion to purified P-selectin immobilized on plastic wells
Type: cell-based
Conditions: result in words
Source text: Peptides can be screened for their ability to inhibit adhesion to cells, for example, neutrophil adhesion to purified P-selectin immobilized on plastic wells, using the assay described by Geng, et al., Nature 343, 757-760 (1990).
Human neutrophils are isolated from heparinized whole blood by density gradient centrifugation on Mono-Poly resolving media, Flow Laboratories. Neutrophil suspensions are greater than 98% pure and greater than 95% viable by trypan blue exclusion. For adhesion assays, neutrophils are suspended at a concentration of 2×10^6 cells/mL in Hanks' balanced salt solution containing 1.26 mM Ca^2+ and 0.81 mM Mg^2+ (HBSS, Gibco) with […] human serum albumin (HBSS/HSA). Adhesion assays are conducted in triplicate in 96-well microtiter plates, Corning, incubated at 4° C. overnight with 50 microliters of various protein solutions.
P-selectin is isolated from human platelet lysates by immunoaffinity chromatography on antibody S12-Sepharose™ and ion-exchange chromatography on a Mono-Q™ column (FLPC, Pharmacia Fine Chemicals), as follows. […]
Bound P-selectin is eluted from the S12 Affigel with 100 mL of 80% ethylene glycol, 1 mM MES pH 6.0, 0.01% Lubrol PX. Peak fractions with absorbance at 280 nm are pooled. […]

| inhibit the adhesion of human neutrophils to purified human P-selectin (FIG. I) | Substance |
| --- | --- |
| inhibit the adhesion | SEQ ID NO: 10: peptide of Formula I shown in FIG. I; its sequence is not printed in the text (Nif-TDLVAIQ-NH2) |
| inhibit the adhesion | YTDLVAI-NH2 [SEQ ID NO: 4, Tyr-Thr-Asp-Leu-Val-Ala-Ile-NH2] |

Source: US5602230A, “Peptide inhibitors of selectin binding” (Centocor, Inc., priority 1995, dated 1997)
